Measured values reported in the Human Domainome abundance scans (Beltran et al. 2025).
± gives the uncertainty stated by the source.

B1: Mineralocorticoid receptor, residues 600 to 675; numbered along this chain, P08235 (parent)
chain: SKICLVCGDEASGCHYGVVTCGSCKVFFKRAVEGQHNYLCAGRNDCIIDKIRRKNCPACRLQKCLQAGMNLGARKS

Variants of: B1
Test: abundance fitness (aPCA) (normalised: wild type 0, dead -1); higher = more abundant; growth selection in yeast, the domain comes from the species named
Conditions: Homo sapiens

Abundance fitness: each site, then its substitutions
A41: Q -0.074 ± 0.069, Y 0.001 ± 0.06, W -0.127 ± 0.075, P -0.116 ± 0.048, M 0.052 ± 0.056, K -0.149 ± 0.077, R -0.021 ± 0.044, S -0.077 ± 0.041, H -0.033 ± 0.045, D 0.036 ± 0.051, L -0.103 ± 0.041, E 0.129 ± 0.081, N -0.079 ± 0.052, V -0.053 ± 0.043, G 0.028 ± 0.04, C -0.017 ± 0.06, T -0.048 ± 0.045, F -0.277 ± 0.07
P57: V -0.135 ± 0.046, N -0.018 ± 0.038, T -0.082 ± 0.04, G -0.062 ± 0.065, H -0.002 ± 0.04, S -0.051 ± 0.039, F -0.016 ± 0.045, E -0.048 ± 0.078, Q -0.09 ± 0.059, A -0.04 ± 0.042, C -0.042 ± 0.057, I -0.168 ± 0.044, D 0.061 ± 0.051, R -0.115 ± 0.044, K 0.006 ± 0.057, L -0.142 ± 0.036, W -0.027 ± 0.059
G42: R -0.062 ± 0.045, W -0.126 ± 0.077, Y -0.051 ± 0.045, I -0.033 ± 0.044, D 0.051 ± 0.057, T -0.099 ± 0.05, N -0.025 ± 0.046, A 0.005 ± 0.043, S 0.023 ± 0.037, M 0.045 ± 0.1, P -0.621 ± 0.083, C -0.088 ± 0.046, F -0.044 ± 0.045, L -0.009 ± 0.043, Q 0.032 ± 0.091, V 0.005 ± 0.041
L61: I -0.155 ± 0.086, Q -0.005 ± 0.063, T -0.361 ± 0.07, H -0.233 ± 0.1, R -0.205 ± 0.039, E -0.214 ± 0.054, G -0.566 ± 0.049, V -0.101 ± 0.038, W -0.004 ± 0.042, D -0.774 ± 0.19, K 0.021 ± 0.048, Y 0.04 ± 0.074, A -0.315 ± 0.056, N -0.338 ± 0.094, C -0.843 ± 0.2, S -0.471 ± 0.059, F -0.031 ± 0.085
I47: E -0.023 ± 0.14, P 0.013 ± 0.058, A -0.035 ± 0.055, S 0 ± 0.038, L 0.022 ± 0.044, Q -0.024 ± 0.072, G -0.096 ± 0.067, F -0.01 ± 0.047, W -0.193 ± 0.1, T 0.027 ± 0.049, M -0.079 ± 0.09, Y -0.128 ± 0.05, D -0.065 ± 0.057, V -0.019 ± 0.058, H -0.018 ± 0.043, C 0.049 ± 0.057, R 0.03 ± 0.049, K 0.018 ± 0.11
R53: N -0.075 ± 0.29, G -0.045 ± 0.043, M -0.167 ± 0.09, L -0.098 ± 0.076, S -0.095 ± 0.057, W -0.035 ± 0.053, P -0.056 ± 0.058, K -0.078 ± 0.07, C -0.159 ± 0.15, E 0.087 ± 0.056, I -0.098 ± 0.14, T -0.042 ± 0.07, F -0.056 ± 0.19, D -0.024 ± 0.35, Q -0.058 ± 0.068, V 0.025 ± 0.073, Y -0.261 ± 0.28
I48: Y -0.176 ± 0.063, S -0.122 ± 0.032, H -0.2 ± 0.075, T -0.026 ± 0.035, N -0.015 ± 0.062, E -0.002 ± 0.056, K -0.082 ± 0.06, L -0.077 ± 0.03, D -0.107 ± 0.093, A -0.074 ± 0.037, R -0.147 ± 0.036, F -0.104 ± 0.044, C -0.226 ± 0.052, G -0.033 ± 0.04, P -0.131 ± 0.043, M 0.021 ± 0.048, V -0.035 ± 0.038, W -0.072 ± 0.058, Q -0.013 ± 0.049
C56: R -0.358 ± 0.33, Y -0.562 ± 0.26
N44: H -0.045 ± 0.08, D 0.071 ± 0.062, A -0.016 ± 0.041, Q -0.038 ± 0.049, I -0.342 ± 0.099, V -0.246 ± 0.042, W -0.089 ± 0.041, Y -0.049 ± 0.088, P -0.391 ± 0.055, L -0.16 ± 0.038, T -0.054 ± 0.052, E -0.042 ± 0.052, G -0.004 ± 0.036, M -0.081 ± 0.049, K 0.016 ± 0.049, S -0.02 ± 0.043, F -0.075 ± 0.067
K54: L -0.106 ± 0.046, I -0.018 ± 0.04, Y -0.032 ± 0.048, A -0.039 ± 0.049, W -0.194 ± 0.074, S 0.013 ± 0.035, Q -0.071 ± 0.064, V -0.065 ± 0.046, N 0.013 ± 0.046, P -0.072 ± 0.046, G -0.059 ± 0.05, E -0.046 ± 0.092, H -0.118 ± 0.044, R -0.083 ± 0.044, F 0 ± 0.05, T 0.038 ± 0.039, D -0.031 ± 0.056
I51: V 0.085 ± 0.055, N -0.108 ± 0.068, K -0.093 ± 0.051, L 0.018 ± 0.056, R -0.018 ± 0.042, G -0.016 ± 0.043, D -0.083 ± 0.1, A -0.018 ± 0.048, E -0.048 ± 0.057, M 0.024 ± 0.11, H 0.062 ± 0.092, S 0.003 ± 0.042, Y 0.048 ± 0.088, F -0.076 ± 0.077, Q 0.095 ± 0.076, C -0.051 ± 0.073, P -0.137 ± 0.066, W -0.164 ± 0.066
N55: E -0.082 ± 0.085, H -0.038 ± 0.045, A -0.064 ± 0.047, W -0.085 ± 0.088, P -0.144 ± 0.047, I 0.009 ± 0.048, D 0.017 ± 0.048, S -0.051 ± 0.038, C -0.032 ± 0.057, R -0.015 ± 0.039, Y -0.155 ± 0.054, M -0.096 ± 0.062, L -0.021 ± 0.039, Q 0.013 ± 0.082, T 0.015 ± 0.04, F -0.093 ± 0.051
D45: E 0.015 ± 0.042, M -0.057 ± 0.054, I -0.1 ± 0.041, Y -0.159 ± 0.044, R -0.024 ± 0.035, T -0.104 ± 0.038, L -0.094 ± 0.034, V -0.074 ± 0.031, P -0.149 ± 0.046, K -0.072 ± 0.047, A -0.067 ± 0.033, W -0.249 ± 0.054, N -0.045 ± 0.04, S -0.092 ± 0.037, Q 0.016 ± 0.053, G -0.079 ± 0.032, F -0.163 ± 0.046
C59: R -0.801 ± 0.061, T -0.654 ± 0.066, E -0.955 ± 0.15, Y -0.995 ± 0.17, H -0.449 ± 0.068, N -0.711 ± 0.092, G -0.917 ± 0.083, W -0.855 ± 0.098, K -0.972 ± 0.17, S -0.762 ± 0.07, F -0.788 ± 0.13, L -0.658 ± 0.062, I -0.955 ± 0.14, M -0.913 ± 0.2, D -0.626 ± 0.093, P -0.615 ± 0.08, Q -0.957 ± 0.15
R43: F -0.045 ± 0.035, S -0.001 ± 0.027, G -0.006 ± 0.028, V -0.038 ± 0.03, M 0.008 ± 0.048, I -0.025 ± 0.034, W -0.067 ± 0.04, T -0.001 ± 0.032, L -0.055 ± 0.029, E 0.005 ± 0.042, D -0.024 ± 0.043, N -0.015 ± 0.036, P -0.138 ± 0.038, K 0.029 ± 0.049, Q -0.067 ± 0.043, H -0.029 ± 0.04
A58: C 0.05 ± 0.068, I -0.827 ± 0.24, S 0.012 ± 0.041, P -0.117 ± 0.054, R -0.033 ± 0.036, K -0.044 ± 0.049, M -0.141 ± 0.049, Q 0.035 ± 0.061, G -0.051 ± 0.034, E -0.12 ± 0.053, D -0.085 ± 0.067, F -0.082 ± 0.08, W -0.102 ± 0.052, V -0.446 ± 0.056, L -0.175 ± 0.047, N -0.03 ± 0.092
C40: L -0.847 ± 0.13, F -1.13 ± 0.28, R -1 ± 0.15, K -0.73 ± 0.16, D -0.819 ± 0.15, H -0.341 ± 0.11, E -0.646 ± 0.15, S -1.05 ± 0.14, G -0.986 ± 0.16, V -1.23 ± 0.22, W -0.697 ± 0.12, I -0.759 ± 0.14, N -0.477 ± 0.13, T -0.68 ± 0.22, A -0.816 ± 0.11, Y -0.737 ± 0.1
L39: R -0.019 ± 0.036, T -0.077 ± 0.044, V -0.007 ± 0.035, Y -0.054 ± 0.043, S -0.05 ± 0.041
R52: K -0.056 ± 0.075, T -0.04 ± 0.054, D -0.072 ± 0.092, H -0.055 ± 0.11, F -0.14 ± 0.097, Q 0.027 ± 0.059, W -0.052 ± 0.057, S -0.04 ± 0.043, G -0.027 ± 0.039, P -0.081 ± 0.06, Y -0.234 ± 0.11, I 0.049 ± 0.069, M -0.131 ± 0.1, A -0.034 ± 0.043, C -0.043 ± 0.065, L -0.149 ± 0.062, V -0.114 ± 0.057
C46: K -0.839 ± 0.17, V -0.813 ± 0.15, R -0.821 ± 0.088, H -0.011 ± 0.044, Q -0.966 ± 0.2, N -0.921 ± 0.15, A -0.744 ± 0.12, P -0.856 ± 0.13, L -0.819 ± 0.094, W -0.856 ± 0.15, S -0.946 ± 0.097, F -0.653 ± 0.065, I -0.827 ± 0.11, D -0.785 ± 0.23, G -0.636 ± 0.11, M -0.81 ± 0.3, E -0.852 ± 0.34
D49: H -0.276 ± 0.054, K -0.167 ± 0.049, L -0.221 ± 0.039, M -0.3 ± 0.079, S -0.041 ± 0.028, N -0.054 ± 0.043, E -0.04 ± 0.038, I -0.274 ± 0.047, R -0.287 ± 0.029, P -0.327 ± 0.049, V -0.219 ± 0.039, A -0.141 ± 0.031, W -0.258 ± 0.038, F -0.251 ± 0.038, Y -0.211 ± 0.048
Q62: F -0.16 ± 0.069, G -0.028 ± 0.049, H 0.006 ± 0.051, C -0.002 ± 0.056, A -0.013 ± 0.053, E -0.054 ± 0.076
